Assay results from the RNAGym collection of RNA variant scans (doi:10.1073/pnas.2313332121).

B1: TPR t1 (parent)
chain: GACCAAUCUGCCCUCAGAGCUCGAGAACAUCUUCGGAUGCAGAGGAGGCAGGCUUCGGUGGCGCGAUAGCGCCAACGUCCUCAACCUCCAAUGCAUCCCACCACAUGAUGAUGCCUGAAGAGCCUUGGUUUUUUG

Variants of: B1
Test: polymerase ribozyme fitness, log enrichment relative to wild type (log ratio); higher = more active; in vitro selection for triplet polymerase activity
How it was run: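 Mutant libraries of both subunits of a heterodimeric triplet polymerase ribozyme were PCR-built, transcribed, and selected once in triplicate, with frozen incubation at −7 °C and capture of gel-excised extended constructs on streptavidin beads before RT-PCR. Illumina sequencing of input and output libraries was filtered to genotypes with ≥10 input reads and ≥1 read per output. Fitness is the logarithm of genotype enrichment over wild-type enrichment, using inverse-variance-weighted replicate averages. The logarithm is base 2.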

Variant	polymerase ribozyme fitness (log ratio)
G45A C76U C86G	-3.23
G45A C79A G113U A118G	-7.04
G45A C89U	-1.44
G45A C101A	-1.74
G45A C102U G120C	-1.47
G45A C115G G127C	-4.31
G45A G48A G51U A83U U126G	-5.24
G45A G51A C79A	-3.77
G45A G51U G58U A74U C80A	-0.751
G45A G52C C72A C123G	0.812
G45A G58A A111C A118C	-0.455
G45A G60A G110C	-4.86
G45A G61C U81G	-6.11
G45A G61U U130G	-0.472
G45A G63A U67C C82U A84G U96A C98G C124U	-8.07
G45A G63C	-0.827
G45A G63C C82U	-0.994
G45A G69U U78C U112C U129A	0.415
G45A G93C	-1.29
G45A G93U	-1.91
G45A U54A G61C	-0.932
G45A U59A C64U G128U	-2.82
G45A U87C C97A	-3.81
G45A U87G	-0.388

Variant	polymerase ribozyme fitness (log ratio)
G45A U106A A111G	-1.55
G45A U112A	1.41
G45C A50U	-2.42
G45C A66U C79G C82U	-3.83
G45C A84G U87G	-3.02
G45C A100G G120C	-3.59
G45C C49G U59G C89U	-3.44
G45C C49U C56G A121C	-0.675
G45C C56A C98U	-3.15
G45C C56G C89A	-2.69
G45C C82A C101U	-2.68
G45C C99U	-4.05
G45C C102G A121U U126G G128U	-4.67
G45C C115U	-3.17
G45C G48C	-2.05
G45C G48C C53G G107A A121G	-5.84
G45C G51U G71C	-4.44
G45C G57C U59A G120A	-0.07
G45C G58A	-0.146
G45C G58A A121C	0.614
G45C G60C C79A	-1.42
G45C G65U G71A A74G	-5.88
G45C G71A C73U C86A U109A	-6.99
G45C G128C	-4.18

Variant	polymerase ribozyme fitness (log ratio)
G45C U55G G69U G107A	-5.92
G45C U109C	-4.66
G45C U133G G135U	-1.52
G45U A46C A91C	-2.71
G45U A46G G69A U106A	-3.18
G45U A46U C56A G93A	-4
G45U A83C G93U U116C C123G	-4.31
G45U A84C U96A G110A U131A	-3.98
G45U A100C A111G A121G U125C	-1.08
G45U A105U	-3.16
G45U C49A	-0.895
G45U C49A C88U A105U G128A	-4.94
G45U C49A U59C C97G	-5.1
G45U C53U	-2.81
G45U C53U U130A	-1.99
G45U C56A U59G C101G G120A G128A G135A	-3.75
G45U C56U U81G C101G C114A	-5.46
G45U C62U G107U U116C	-5.58
G45U C64U U96A G110A G120C	-4.67
G45U C70U C85U C89A C104U	-5.61
G45U C72A U81C A84C C104U G110U U131C	-4.32
G45U C72G	-1.73
G45U C72G A91C	-2.3
G45U C72G C89G	-3.39

Variant	polymerase ribozyme fitness (log ratio)
G45U C72U C88U G113U U129A	-5.57
G45U C72U U78G C101A G122A	-2.81
G45U C73A A95U	-1.21
G45U C73U C98U A111G U125A	-6.59
G45U C97U U112A	-0.0204
G45U C98A	-6.01
G45U C115A G128U	-4.73
G45U C115U	-2.6
G45U G47A G63U C82G G93U G117C A119G	-7.49
G45U G48A U132C	-1.5
G45U G51U A118G G120U	-7.09
G45U G52A C115U G135U	-4.62
G45U G52U	-2.65
G45U G60C U125G U133A	-1.59
G45U G61A C62U C79A	-2.55
G45U G61U	-0.836
G45U G61U G63C A91C A95G G110C	-4.25
G45U G61U G117U C123A	-2.94
G45U G63C	-2.21
G45U G63U	-2.05
G45U G63U A84G	-3.63
G45U G69A U78A G127C	-4.73
G45U G69U	-0.706
G45U G71A G93A	-2.09

Variant	polymerase ribozyme fitness (log ratio)
G45U G77U C79U C114G	-4.37
G45U G93U G120A	-0.614
G45U G117C	-4.15
G45U G120A	-0.795
G45U G120C	-0.784
G45U G122A	-1.14
G45U U54G G77C C123G	0.415
G45U U55C	-1.88
G45U U59G A83G C115U	-5.27
G45U U78C	-1.46
G45U U92A	-3.79
G45U U96A U132A	-2.11
G45U U96G	-1.78
G45U U112A G128C	-2.89
G45U U130G	-2.66
A46C C49U A111U U133G	-5.19
A46C C53A C72A C86A C124G	0.771
A46C C56A C85G	-5.4
A46C C56A G69U	-1.31
A46C C56G	-1.37
A46C C72U A75U C123U	0.328
A46C C73A	-1.64
A46C C76A	-0.908
A46C C76A C86U C104U	-0.577

Variant	polymerase ribozyme fitness (log ratio)
A46C C104A A118U C123G	-1.15
A46C G47A A50G U129A	-3.12
A46C G48U C70A G113A	-3.12
A46C G57C	-0.329
A46C G57U	-0.681
A46C G58A C62U	-1.93
A46C G58C U59A C88G	-2.01
A46C G69U	-0.0247
A46C G71C	-1.14
A46C G93U U106A	-1.93
A46C G120A	-0.00915
A46C U87A G93C C115A U116C A119C	-3.74
A46C U96G C104U U131C	-1.75
A46C U109C	-6.47
A46G A95G	-0.108
A46G C49A	0.0417
A46G C49U	-0.575
A46G C53A C56U	-0.0153
A46G C53U G113A	-2.14
A46G C56A A91U	-2.49
A46G C56A A100C	-1.41
A46G C64U G110U C123G	-1.18
A46G C70A	-1.26
A46G C70G	-4.8

Variant	polymerase ribozyme fitness (log ratio)
A46G C73G C82U G93A C104A	-4.85
A46G C97U	-1.05
A46G C97U U130G	-2.03
A46G C98U G117C	-5.69
A46G C101A	-0.288
A46G C123U	0.893
A46G G47A G52U	-2.7
A46G G47A U59A	-0.512
A46G G47U A119G	-0.516
A46G G113A	-1.46
A46G U54G	0.0807
A46G U55G U87C	-0.104
A46G U112A	1.3
A46U A66C	-2.07
A46U A83G G110A	-3.02
A46U A111G	-1.48
A46U A121C	1.4
A46U C49G C56U C76U U87A	-1.97
A46U C49U G58C G60A A95C U112G U132A	-3.98
A46U C56A C115U	-2.68
A46U C56G G61U A105U C123U	-5.93
A46U C56G G120C	-0.234
A46U C62G	-3.18
